Source: doi:10.1101/2024.05.01.592117 (2024)

Assays:
[1] = molecular target: 43S preinitiation complex (40S + eIFs 1, 1A, 5, 3j, eIF2-TC and eIF3) (human, UniProt P23396 1-243; P41567 1-113; P47813 1-144; P55010 1-431; O75822 1-258; P55884 …); experiment: FP
[2] = molecular target: T1, 40S small ribosomal subunit (salt-washed, purified) (human, UniProt P23396 1-243); experiment: FP
[3] = molecular target: T1, 40S small ribosomal subunit …; experiment: FP; 40S with eIF1 and eIF1A

Kd [1]: ~3000 nM
Kd [2]: ~5 nM
Kd [3]: 71 nM
B1: fluorescence-labeled Pdcd4-NTD (FL-Pdcd4-NTD, residues 1-156) (domain or fragment)
chain: MDVENEQILNVNPADPDNLSDSLFSGDEENAGTEEIKNEINGNWISASSINEARINAKAKRRLRKNSSRDSGRGDSVSDSGSDALRSGLTVPTSPKGRLLDRRSRSGKGRGLPKKGGAGGKGVWGTPGQVYDVEEVDVKDPNYDDDQENCVYETVV
modifications: fluorescein-5-maleimide on the single cysteine C150
